Assay: soluble on expression in E. coli; label from the status in PepcDB or PDB records
For “GPGMSSLSNSLPLMEDVQGIRKAQKADGTATVMAIGTAHPPHIFPQDTYADVYFRATNSEHKVELKKKFDHICKKTMIGKRYFNYDEEFLKKYPNITSYDEPSLNDRQDICVPGVPALGTEAAVKAIEEWGRPKSEITHLVFCTSCGVDMPSADFQCAKLLGLHANVNKYCIYMQGCYAGGTVMRYAKDLAENNRGARVLVVCAELTIMGLRAPNETHLDNAIGISLFGDGAAALIIGSDPIIGVEKPMFEIVCTKQTVIPNTEDVIHLHLRETGMMFYLSKGSPMTISNNVEACLIDVFKSVGITPPEDWNSLFWIPHPGGRAILDQVEAKLKLRPEKFRAARTVLWDYGNMVSASVGYILDEMRRKSAAKGLETYGEGLEWGVLLGFGPGITVETILLHSLPLM”, the “soluble on expression in E. coli” value was “soluble”. In the case of “MGSDKIHHHHHHMRLKITHRTEYRYDAPVQYLLQRLRLLPVSGQTQTVLSWALKVEGAREEVRFTDHYGNDTRLLSVEGDHDFITVEASGEVVTRDTSGVCGSHQGFAPLWLFAQETPLTAIGGGIRKLAEAVGTGTDIERLHRLMAMIGERVAYTPGSTKATTPAEEALALKTGVCQDHSHIFAAAARAMGFPSRYVSGYLMMDAVEQAASHAWAEAHVPGLGWVAFDPANGISPDERYVKVATGRDYRDASPVSGIRQGQAEERLAVTVTVEQ”, the “soluble on expression in E. coli” value is reported as “not soluble”. For “MNNEAVFSARLSSTQHVGLCRLCNSPLVHTFVDLGMSPPCESFVAADAANDVEPFYPLHAFVCDECFLVQLQEYVAPENIFTEYAYFSSFSDSWVAHAKRYCDMVIERFALGQSSFVVELASNDGYLLQHFLTSNIPMLGIEPAVNVAKVAIGKGIPTLTEFFNEALATDMAARGQKADLIIGNNVLAQVPDINDFVAGMKTLLKPEGVITLEFPHIEKLIAENQFDTIYHEHFSYFSLLTIEKMARRHGLKVFDVEEIPTHGGSLRVFFSHEDIRFPREARVDSLLARELNAGLDKIETYTAFAEAVRQTKRNLLSFLIRLKEMRKSICAYGAPGKGNTLLNYCGIGTDFIDFAVDRNPYKHGRLTPGMHIPIRPVSEIPHMKPDYVLILPWNLKNEIVAQMKDIRNWGGKFIVPIPDISIIDPKELVQ”, the “soluble on expression in E. coli” value was “not soluble”. With “MGSDKIHHHHHHMNQHTLLPKKTERLQYFGSVSPIKGEKPVEKEKMKDLQNIRKDYFFDIQHVGVANVSHPVTITSAMMPAEQTTAANFTMTCNLPRNQKGINMSRLTELLQVYHQNGWILSFSSLQQFTKELAENMDTSSATVEVRFPWFFERKSPKLEKAGLMHADIFMSVTYRKDQPFKQRAGISAKVTTLCPCSKEISEYSAHNQRGTVKHLGRIFTRAASLPSDVKADLPHAAESNASARLHPVLKRPDEKAVTETAYENPRFVEDLARLIAADLFELEWVSAFEIECRNEESIHLHRCLCEVCFSKEVDKI” the “soluble on expression in E. coli” value was “not soluble”. With “MEKISDLIECIAYEKNLPKEMISKVIQGCLLKMAQNELDPLARYLVVEENKQLQLIQLVEVLEDGDERLVNDPSKYISLSKAKEMDPSVKIKDELSYSLSLESMKQGAINRLFKDLQYQLEKALEDSHFEAFQKRLNSVLMGQVILVDHNQNTFIEIEQQFQGVLSMRHRIKGESFKVGDSIKAVLTQVKRTKKGLLLELSRTTPKMLEALLELEVPEIKDKEIEIIHCARIPGNRAKVSFFSHNARIDPIGAAVGVKGVRINAISNELNKENIDCIEYSNVPEIYITLALAPAKILSVEIKKIPIEELNAEEKESIQERFIVNNHLQKAKVRLLDIEKSKAIGKGGVNVCLASMLTGYHIEFETIPSVKENAENESEKETPKVGVEALESLFKN” the “soluble on expression in E. coli” value was “not soluble”. With “MAHHHHHHMYYIYIYIYENGSAYQKDNDNTVENKLLENLYKLELIDNYDTPLSRVSRTDKGVSARINGINLRLNIKYENVPIFEIEKKYVKELKKKLKNIHIHDIKHVSNTFDARLNCIQRTYVYFFINKNYNIEKMKKAAKLFIGEHDFSNCCKKGKNVTSNRRTVLKFDIRNIDKHFYYFKIKGISFLYNQIRHMVAILFLVGKGLLDNNDVNNILNNTSTKRKNYHIADENGLLLYSFKFNDYKYNNHVNNKIFLNVMNKYIQSTMLLVSLCHPLKLENKNEDFFENLDDEDIKNDVIHNNMIKEINKK” the “soluble on expression in E. coli” value was “not soluble”. In the case of “MSLSFLKHVQDCNTHDLSNFVRFVIEGRRVGWVRKALAQRLKAHGRVFDVTRDAVLLSASLRTPQSRTRAVADVVDRLADEGVVPAPRGELYRVNQSWGEPTLMLLDRAVVPTFGVRAYGVHLNGYVGAGADLHLWIGRRSPDKSVAPGKLDNMVAGGQPADLSLRQNLIKECAEEADLPEALARQAIPVGAITYCMESPAGIKPDTLFLYDLALPEDFRPHNTDGEMADFMLWPAAKVVEAVRTTEAFKFNVNLTVIDFAIRHGLIDPDNEPDYQEILAGLRGRPRERAASEGHHHHHH”, the “soluble on expression in E. coli” value is reported as “soluble”. In the case of “MVKRAKLINDVVELIPIFHLLSTETYRKVYNALLEGWYTARELEEMIGEGYRDALRILKNAGMLEAKWRMPSDPGGKPEKEYHVSYTHVSANFYISLKDLNKVLEVVFMSDDEVEEYVREIIKEIEAGRTSVTYITKDLNLDPLFLRAIAKRSLKLNLKGQLIELAKDEEI”, the “soluble on expression in E. coli” value is reported as “not soluble”. For “MIVYGLYKSPFGPITVAKNEKGFVMLDFCDCAERSSLDNDYFTDFFYKLDLYFEGKKVDLTEPVDFKPFNEFRIRVFKEVMRIKWGEVRTYKQVADAVKTSPRAVGTALSKNNVLLIIPCHRVIGEKSLGGYSRGVELKRKLLELEGIDVAKFIEK”, the “soluble on expression in E. coli” value was “soluble”. With “MKTVVFAYHDMGCLGIEALLAAGYEISAIFTHTDNPGEKAFYGSVARLAAERGIPVYAPDNVNHPLWVERIAQLSPDVIFSFYYRHLIYDEILQLAPAGAFNLHGSLLPKYRGRAPLNWVLVNGETETGVTLHRMVKRADAGAIVAQLRIAIAPDDIAITLHHKLCHAARQLLEQTLPAIKHGNILEIAQRENEATCFGRRTPDDSFLEWHKPASVLHNMVRAVADPWPGAFSYVGNQKFTVWSSRVHPHASKAQPGSVISVAPLLIACGDGALEIVTGQAGDGITMQGSQLAQTLGLVQGSRLNSQPACTARRRTRVLILGVNGFIGNHLTERLLREDHYEVYGLDIGSDAISRFLNHPHFHFVEGDISIHSEWIEYHVKKCDVVLPLVAIATPIEYTRNPLRVFELDFEENLRIIRYCVKYRKRIIFPSTSEVYGMCSDKYFDEDHSNLIVGPVNKPRWIYSVSKQLLDRVIWAYGEKEGLQFTLFRPFNWMGPRLDNLNAARIGSSRAITQLILNLVEGSPIKLIDGGKQKRCFTDIRDGIEALYRIIENAGNRCDGEIINIGNPENEASIEELGEMLLASFEKHPLRHHFPPFAGFRVVESSSYYGKGYQDVEHRKPSIRNAHRCLDWEPKIDMQETIDETLDFFLRTVDLTDKPS” the “soluble on expression in E. coli” value was “soluble”. With “MPQTSAWQLNDTTARPPPPPPPPGSEAGGSDGASMNGANTLPRVSKRVSAAGKTSNIPRFKRPHLPHSTRPLSAVLTSSSSPVVHRKISPSSSAPSTSSAHRRFSHLPQQHFHHHIHHNQTAVISEETLTTPRASTLNLNQTSVFPTAISQGSMPNSGTNTAEASMTSSVCAMETEGTNGDELAESRDMVSEMQRRCRIGPSGYPHLLKAKRLRFYRNGDQYFKGIQYALQSDRVKSMQPLMEDLMKTVICDSTALPHGIRHIFTIDGAQRITSVDQFEDGGGYVCSSTDAFKPVDYSRAAEPSWRLTLANRYNRHLETKKLALSVVEPCHENTDFVFPRIIKVIRNGVKPRRISRHLLNKKTARSFDQVLRDLTFVVKLDSGAIRKLFTLSGRPVLSLQDFFRDDDVFVAYGGNEKMAADDLLVASEEHKSVGSGTSSNMRRTSRRSTMPNRNESLRHDRSGSVIPDQDQQRLPPLLDEKFQLVRLIGDGNTAVVYEVIDKTNNDDRKAMKVIARENVIGKEHLIEMELAILQKIDHTFIVQLYDHWFVDDSYYLSLELIEMGDLFEHLRIVRRVPERDAVRMMTCLGQALEYIHELGIVHRDVKLENLLIVKDEFGELGVKLADFGLAAEMPKDFGVLSTICGTPTYVAPEVLNKTGYGCKVDIWAAGVILYAILVGFPPFQSSDGSEQDLFSAIMSGEFSFPSPSWDDVSWSVRHLIMCLIHTDPFHRYSAGELLNDEWMVNLGDVDPEYEEWAHRFVQSKMHVEEEQETPYEYYTSRRTSMDELSESAAVEFSYSCES” the “soluble on expression in E. coli” value was “not soluble”. In the case of “MENQTKCNISYRRIRIDKKKPPKTALKIKCLFTFSGFQEMLHVDKVDSLQTEKVNIRASGLVEWSCYTFILRLHYDRGTYASFCVARSDSLGCIDLSRDAPIRGTYTEVDQMGLFISIEPTQSIRPGHFFKTYDPKTYYYTLQLLDDSKKIIDEIHLKKHWKHPLVEQINVEQNGLYGTLFKPPGKGPFPAVIFIPGSNGMLESGYAAVLASEGFLTFTFAYFAYKKDLPKLIPDVDIEFFEKPIEYVQNSPYCSGKIGLVGQSFGGLTANYLSTKYHQVSAVVALNCSAAFCRDNAVMKENGKPMETQILDEGMSDFVNQVLRQKPAFRDLYSNLTPTTSIPWARAPKNTAYRIVQCYDDMLVDAVPSIINICGNLRKTGHHVESELVPGGHFLYFPYFPHHGIIYNAQINMLWGFGGECYQHSKSQETTWKKNVEFFKKHLGDVKRIPEWKRESTVTLPVSTKSSKSLQCKL”, the “soluble on expression in E. coli” value is reported as “not soluble”. With “GLGKFIETCRNTQLAGSSELAAECKTRAQQFVSTKINLDDHIANIDGTLKWQPSNFSQTCYNSAIQGSVLTSTCERTNGGYNTSSIDLNSVIENVDGSLKYE” the “soluble on expression in E. coli” value was “soluble”. With “MSLDSNTVAVNPDSLILKRFLKTNQLNGIMIVTGPDGKAQVFSNQSKVDGSPVSIKDYFPLASLQKLITGVAIQQLIDKGKLSLNTPLSKYYPQIENSENITIQNLLTHTSGLADRKEVPQQVLTTQEQQLDFSLTNYRVTYRKKWKYANINYALLAGIISQISGQNYATYVRQHFLTAGKGWHFKKYIQIKDKSKLAALSVMDQSTTWDKLSKEVTSTFGAGDYASRPVDYWKFMMAFINDQFVPVSEYQRSMKMTSKSYYGGLYISQKMLHANGGGFDTYSCFAYSNPKTKQVMVLFITNGKYKRVKSLAAKAFKLYADSYALRKNETSEGHHHHHH” the “soluble on expression in E. coli” value was “soluble”. For “MIEKDVVQILKAVSEFYPGRFQPDDLKGTVKAWHRVLAEYELEEIMNNLTDYAKVNKFPPTVSDLLKAQSEQRDRFIPSYEETQRILKEQAEAEEAARNDPDLQAAQEENMRKIREMLGINRGGAR”, the “soluble on expression in E. coli” value was “soluble”. In the case of “MSLNTRRLLDLSVTLDNNPYTDPPPLLPKIDYMDHQQGWPEMAAMFPGLRKEDLPGDESWAAERLQITTHSGTHMDAPWHYASTTDGGKPAFGIDELPLEWCLQPGVKLDFRHLPDGHVVTAAQVEAELARIGHELQPLDIVLVNTRAGSLFGQPGYLEAGVGMGREATLYLLERGVRVVGTDAWSWDAPFKFTRERFSETGDASIIWEGHKAGRDIGYGQMEKLANLEQLPADGFLVSCFPYKIRHASAGFVRAVAIFDLEHHHHHH”, the “soluble on expression in E. coli” value is reported as “soluble”. With “MSSKWITSLFKSVVLTAALVTPFAASAFTEGTDYMVLEKPIPNADKTLIKVFSYACPFCYKYDKAVTGPVSDKVADLVTFTPFHLETKGEYGKQASEVFAVLIAKDKAAGISLFDAKSQFKKAKFAWYAAYHDKKERWSDGKDPAAFIKTGLDAAGMSQADFEAALKDPAVQETLEKWKAAYDVAKIQGVPAYVVNGKYLIYTKNIKSIDSMAELVRELATKK” the “soluble on expression in E. coli” value was “not soluble”. In the case of “MSLKKVNVTYALLYDKTKEKILMVKNKGKNGSYYTLPGGAVKLGETLEEAVIREVKEETGLHITVNGICYISEAFFEERGHHAIFFNFLGEIIGGETNITRPKEIEEITWMELHIASPHLRIPEHLVNMLKKKETVPYFFNGTIVHQSSEGHHHHHH”, the “soluble on expression in E. coli” value is reported as “not soluble”. In the case of “SLARSPSVSAGTRPHAGEHTDTSPISSAVSAPSPSSLPLVFSPQPSVSSSSLPLSSSSLARVSSSPQPSASSASLPLSSSRQSGEALGSSGAASSESSRERQGKLRLRHPRQRKPFLLQVLHAEHRCHNPRELARVQRAGGSIFAGRVGGVLEPSRSVGDFDVKDAQPPGVLIATPEVCRVKVRKPTLVLLGTDGVWDMLCSADVLACVKKVTQFWQLLLAAFRERMEELQEEATEKQENEKERGEGDQVRESSGNGKG”, the “soluble on expression in E. coli” value is reported as “soluble”.

Reference: the DeepSol protein solubility set
